According to patent publication US20110244493A1 (COMMONWEALTH MEDICAL COLLEGE, published 2011):

Biological target: T1, cytoskeletal associated protein 4 (CKAP4), endogenous in HeLa or normal bladder epithelial cells (Homo sapiens, UniProt Q07065 1-602, reversibly palmitoylated on cysteine 100)
T1 sequence: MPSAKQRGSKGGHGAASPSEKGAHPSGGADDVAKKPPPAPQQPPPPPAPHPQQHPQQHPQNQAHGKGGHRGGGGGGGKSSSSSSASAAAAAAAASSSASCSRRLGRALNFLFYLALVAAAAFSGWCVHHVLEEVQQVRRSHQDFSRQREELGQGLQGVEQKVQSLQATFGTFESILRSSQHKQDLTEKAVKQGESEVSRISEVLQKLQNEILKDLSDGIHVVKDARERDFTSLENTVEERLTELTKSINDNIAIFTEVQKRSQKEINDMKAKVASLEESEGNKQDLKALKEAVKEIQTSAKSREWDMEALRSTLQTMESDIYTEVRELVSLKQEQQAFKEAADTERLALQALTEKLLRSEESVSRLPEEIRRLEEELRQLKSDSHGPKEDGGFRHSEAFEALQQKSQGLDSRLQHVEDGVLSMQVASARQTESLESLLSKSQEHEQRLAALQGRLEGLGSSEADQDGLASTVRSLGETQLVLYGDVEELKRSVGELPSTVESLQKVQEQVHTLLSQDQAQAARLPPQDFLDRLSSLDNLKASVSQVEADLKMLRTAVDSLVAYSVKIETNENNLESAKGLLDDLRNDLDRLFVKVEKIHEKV
Assay: cell-based or functional assay

abundance of CKAP4 in the nucleus (nuclear fractionation and Western blot, HeLa cells): 5 fold
B1: antiproliferative factor (APF), synthetic (peptide)
peptide: TVPAAVVVA
modifications: sialic acid α-2,3 linked to galactose P1-3-N-acetylgalactosamine, which is α-O-linked to the N-terminal threonine residue of the nonapeptide (printed as '3 carbohydrate moieties-T-V-P-A-A-V-V-V-A')
